Laboratory results published in PMC11448073 (Microbiology Spectrum, 2024).

Tests used:
[1] = target: T1, SARS-CoV-2 nucleocapsid protein (N) (SARS-CoV-2, strain , UniProt P0DTC9); assay: ELISA
T1 construct: also called SARS-CoV-2 NPs

[2] = target: fraction 1 capsular antigen (F1) of Yersinia pestis (Yersinia pestis EV strain, UniProt P26948); assay: ELISA; settings: both partners purified
[3] = target: fraction 1 capsular antigen (F1) of Yersinia pestis (Yersinia pestis EV strain, UniProt P26948); assay: BLI; settings: both partners purified

B1: human monoclonal antibody F23 (antibody, V domains shown)
VH: EVQLLESGGGVVQPGRSLRLSCAASGFTFSSYAMHWVRQAPGKGLEWVAAILYDGSNKNYADSVKGRFTISRDNSKNTLYLQMNSLRAEDTAVYYCARGTPAMVRGVIGPLFEHWGQGTLVTVSS
VL: DIQMTQSPDSLAVALGERATINCKSSQSVLYTSNNKNYLAWYQKKPGQPPKLLIYWASTRESGVPDRFSGSGSGTDFTLTISSLQPEDVAVYYCQQYFILPRTFGQGTKLEIK
notes: also called HRP-conjugated F23; source: Expi293F, cotransfected heavy and light chain plasmids, purified (Protein A); copies: 2 + 2
[1]
  binding result: no binding

B2: human anti-F1 monoclonal antibody αF1Ig8 (antibody, V domains shown)
VH: QVQLQQWGAGLLKPSETLSLTCAVYGGSFSGYYWSWIRQPPGKGLEWIGEINHSGNTNYNPSLKSRVTISVDTSKNQFSLQLNSVTPEDTAVYYCARTRGYFDLWGRGTLVTVSS
VL: DIRMTQSPSSLSASVGDRVTITCRASQSISSYLNWYQQKPGKAPKLLIYATSSLQSGVPSRFSGSGSGTDFTLTISSLQFEDFATYYCQQSYSTPSSFGQGTKVDIK
notes: source: EXPi293F, synthesized expression plasmids
[2]
  binding result: binds

B3: human monoclonal antibody F19 (antibody, V domains shown)
VH: EVQLLESGGGVVQPGGSLRLSCAASGFTFDDYAMHWVRQVPGKGLEWVSLISGDGGSTSYADSVKGRFTISRDNSKNSLYLQMSSLRTEDTALYYCAKDRGRAWIDYWGQGTLVTVSS
VL: not shown
notes: also called HRP-conjugated F19; source: Expi293F, cotransfected heavy and light chain plasmids, purified (Protein A); copies: 2 + 2
[3]
  Kd: 0.165 nM
[1]
  binding result: no binding

B4: human monoclonal antibody F3 (antibody, V domains shown)
VH: EVQLLESGGGVVQPGRSLRLSCAASGFTFSRYGMHWVRQAPGKGLEWVAVISHDGNIKYYGDSVKGRFTISRDNSKNTLYLQMNSLRVEDTAVYYCAKDRGKFDSWGQGTLVTVSS
VL: not shown
notes: also called F3-HRP; source: Expi293F, cotransfected heavy and light chain plasmids, purified (Protein A); copies: 2 + 2
[1]
  binding result: no binding
